Experiment: soluble on expression in E. coli; label from the status in PepcDB or PDB records

Sequence	soluble on expression in E. coli
MVEMAATGYPVLILKEGTQRTYGREALRANILAARVLAEMLKSSLGPRGLDKMLVDAFGDITVTNDGATIVKEMEIQHPAAKLLVEVAKAQDAEVGDGTTSVVVLAGALLEKAEKLLDENLHPTIIIEGYTKAMEEALRLVDEAAVPVEVEDDSVLRRIAETTLASKFVGTGPERDKIISMVIDAIRTVAEKRPDGGYEVDLDYVKIEKKKGGSLLDSKLVRGIVLDKEVVHPAMPKRVENAKILVLDAPLEVQKPELTTKIRVTDIEKLESFLEEETRMLRDMVEKIAATGANVVITQKGIDEVAQHFLAKKGILAVRRVKRSDIEKVAKATGAKIVTSLRDLKPEYLGYAELVEERKVGEDKMVFIEGAKNPKSVTILLRGANDMLLDEAERNIKDALHGLRNILREPKIVGGGGAVEVELALKLKEFARTVGGKQQLAIEAYAEALETIPTVLAESAGMDALEALLKLRSLHSQGYKFAGVNVLEGKIEEDMTKINVYEPVLVKKQVIKSASEAAISILKIDDVIAAAPPKKKEKKGKTGEEEEEEGGGSKFEF	soluble
MNGGCDLWIGCARWLRDMKVLTTDKNGTMLEFASVLRDGILLCRLANTLVPNGIDQKKIMRTNQPSPFLCCNNINYFAMFCKTYFNLEDADLFTAEDLYYMNGFQKVLKTLSFLSHTKESLSRGVDPFPDTDNNQEGTSNGSEFEDDVEIYQSLHDNIENVDPNRTIYGPITSADPEEQQSEQLYDRIVTNRKPSMNENDLQNTPTLKRNRCIRELYDTEKNYVAQALVTIIKTFYEPLKGIIPTSDYNIIFGNIEEINVLHTALLADLEYPVKVALGLSDATPPRPISLNECVPQTIGEVFIKYRDQFLAYGKYCSNLPDSRKLSNELLKTNEFISRNINELTAQGNCKFGMNDLLCVPFQRLTKYPLLLKELQKKTDLASPDRKSLEEAVEVMEDVCNYINEESRDTNAIKVIDEIEQSITDLSMPLNVKLHDYGRVNLDGEVKMAESTLTQAGKPKQRYIFLFDKVIVVCKAANKVMAAKTTGASARTNTFTYKNAYVMSELTIDKNASLDVKSGGTITRRTQYVIIMTRDRNENNEITQLTFYFKNEATRNNWMTALLLSKSNVSPTDYLRDTNHKVAFHSFRVDVKNPATCDVCDKLMKGLQYQGYKCEFHEGDIVVANSNSTPSDLSYLQFAKGDRIEVIKMQGHNRFTGCLINNRNRTGLVHLDHVSQSRTTSMIGLSPIDSPAGSIAPRVVRNESTVLPNKLLSDGSSRSLSGPHGSRSSRNSSSSTINGSMDSVPRQQDYVNTEISEFLWYMGEMERAKAESTLKGTPNGTFLVRYSKNRKQTAISLSYKNDVKHMIIEQNSDGKVYLDEDYIFNSTVELVQYYRSNNLIEIFAALDTCLKNPYSQCKVFKAVHDYDAPSPNNEGKFLSFKTGDIVVLLDTVGEDRGWWKGQVNNKSGFFPLSYVKPYDPATEGSSSPVTPTSSSS	not soluble
MSLNLNLIFKEQTLKFNKEEQETYLFLQQHNSDWANIFKEMILQGRDKVTQRLVTSMHRENLVKARTQSKKILSRDLIMLDISTTHILEIQFPQAKQTLYAPITGEHAFDRIDVEGPFYIKDDITNTITRVHHPNEILECILIEAPDLKNAASDQFQQDLINSATNMTFAISYQALSMQHDSAPLFNIIENSEDSYLRSEQAVIEGHPLHPGAKLRKGLNALQTFLYSSEFNQPIKLKIVLIHSKLSRTMSLSKDYDTTVHQLFPDLIKQLENEFTPKFNFNDYHIMIVHPWQLDDVLHSDYQAEVDKELIIEAKHTLDYYAGLSFRTLVPKYPAMSPHIKLSTNVHITGEIRTLSEQTTHNGPLMTRILNDILEKDVIFKSYASTIIDEVAGIHFYNEQDEADYQTERSEQLGTLFRKNIYQMIPQEVTPLIPSSLVATYPFNNESPIVTLIKRYQSAASLSDFESSAKSWVETYSKALLGLVIPLVTKYGIALEAHLQNAIATFRKDGLLDTMYIRDFEGLRIDKAQLNEMGYSTSHFHEKSRILTDSKTSVFNKAFYSTVQNHLGELILTISKASNDSNLERHMWYIVRDVLDNIFDQLVLSTHKSNQVNENRINEIKDTMFAPFIDYKCVTTMRLEDEAHHYTYIKVNNPLYRENNEGHHHHHH	soluble
MSTKELEERKVCFFCKILGFLSFPAIKIRIGTPANTISRHLTGFASYCIHLAVGVAHTRPEPELADDSRCYGNILDLVKRKKVTNWTQTRLVVEGKLGEGLRGIAYKVKHRNTMKCLKLLPLSWTSRNKEALEDLVALRSLKTIKKETPNYLTFFDSFVLTNLPASTQDKLNQLDPQCPATHYLGLLVELGSNSLDNTMLTTAVEGLSIVKQLVLSLVIAKRRLDTNHNDVHPGNVLVKRSASPKTLKYTLDGKVIRIPSHGLVVGIIDFSEASFGRANGNSDVGFLSFITEEISKTLSKAENRTFQTAIDGLTDARSITAIYPNASIFKKH	not soluble
MEKEGFARLFHNFDNVIEPKLCSTSGSVPSYLKGTMLRNGPGMFEIGDTKYQHWFDGMGFIQRYHFEDGKMYYSARYLESENYKKNMEAQRIVTGSFGTASFPDPCKSIFSRFFSSFVQSEGIHDNANVAFAPVGDGLYACTETPNMHRVDLDSLDTLEPVDFSKYVALHTCTAHQLFDENGDVYNIGSRFGPDAAHVFTVTKNPKNLQSDSDRSWEHTTKIGEIRCSETFYPTYMHSFGMSENYLIMFESPIRIDIKKFIMKRFITTTFRDCMKWHADKDVKIFILNKKTGEQVPLKLKMAPFFTFHHANTFERDGCLVVDYCRIEQAGNFDALLIENMKTGNFQNDALFLPYLTRVIIPLSIPDGAQPGDDLLKPLGWAKGCSAIFQDDGKIRLKEKRVCDISMEFPRYHWEKINMKPYNYVYGSSVLGAQKSETLPGIVKADLENGDHKVWRRENDKQICGEPIFVPNPEGVREDDGILIVPVMTISDGQRPFVLILEAKNLTEIARYTIPEARIPLGFHAFYQGRT	not soluble
MTGNKIHNPLDRNHSELRDKKVSLNDGDPFTIALFGVDSDADRKKKGGGERSDSIMILSINPKTKKTEIVSIPRDTRAEIVGRGTTEKIAHAYAYGGPNMAVKSLEKLMNVPIDHYATIDMDGLHNMIDSIGGVDVVSNDTFTVDGVRFTKGQQTHVNGDQALKFIRSRKEEGAGGDFGRQQRQQIVLEAMANKIASPSSITHFNSLMNEIQNNVKTDLTLGDLNTIRSNYKDANDTINKHQLSGQGGIQSDGLYYFIPSEQSKAESTKLLKDNLELEHHHHHH	soluble
AGALWEIEKELFTKLPAPSSAINSHLQPAKPKVPQKKPSKWDPPAEFKVDLSTAVSYNDIGDINWKNLQQFKGIERSEKGTEGLFFVETESGVFIVKRSTNIESETFCSLLCMRLGLHAPKVRVVSSNSEEGTNMLECLAAIDKSFRVITTLANQANILLMELVRGITLNKLTTTSAPEVLTKSTMQQLGSLMALDVIVNNSDRLPIAWTNEGNLDNIMLSERGATVVPIDSKIIPLDASHPHGERVRELLRTLIAHPGHESSQFHSIRDIITLYTGYDVGTEGSISMQEGFLATVRECASFDLDAFERELLSWQESLQKCHNLSISPQAIPFILRMLRIFH	soluble
DEICKNQYLYRINQENYVLFSFDIFDTLISRNIAKPSAVFLIMKQKMRNMDFPLNLVKNFDRIRVEVEQYYYRNVCKNKYEDTNFDEIYNLLQQNFSLSFQQKEELMKLEINTEKETLYPIKKNIELVEELIKNEKRVVLISDMYFSSSIIRTFLNKFSPIFNNIPIYMSSEFRLKKNSGNLFKAILNLEKVDPKKWIHCGDNWVGDYLKPSNLEISTNFYINQLLPYEEFALNRNSLDMDLQKIIGISKKIR	not soluble
MTFAEYFKNWYIFYKKPKVSKVTLNRYQYTYNVINEYFGNKLLKDITRANYQKFIVKYGQNHSPNTMKMINNCIKACVKNAVYDEEIKKDFTYNIELISNRDNVVQLEHHHHHH	not soluble
MSLKEAEVLKYEAFTSSPGKGNPAGVVLQGDDYTEDEMQIIAERAGYSETSFIRKSESADLELRYFTPGHEMNLCGHATVASLYALCEKGMLESGKTYSIQTKAGILPVKISEKDGRIHITLEQASPQFKPFTGDRKKLADALGITDEDFHEDLPIVFGSTGIWTAIVPLKSLEASKKMVPDNKQFPEVLVDLPKASVHPFTFETVHPDSDLHGRHFSSPYSGTIEDPVTGTASGVMGAYMKHYGNAEQHKFIIEQGQEIGKDGKVEIEMNEAGGHVKVNMTGTAVYSETRILKIEGGSHHHHHH	soluble

Reference: the DeepSol protein solubility set
